Literature values, collected in patent publication US20240238439A1, “HER3-BINDING ANTIBODY-DRUG CONJUGATE” (Hummingbird Bioscience Pte. Ltd., priority 2023, published 2024).

Legend:
[1] = system: HER3-mediated signalling in HER3-expressing human cancer cell line-derived xenograft tumors; details: in vivo
[2] = system: cyno, mouse and rat HER3
[3] = system: xenograft tumors derived from a human cancer cell line harbouring an NRG gene fusion
[4] = system: human cancer cell line-derived xenograft tumors; details: in vivo
[5] = biological target: interaction between HER3 and EGFR (Homo sapiens, UniProt P21860)
[6] = biological target: human HER3 (Homo sapiens, UniProt P21860)
[7] = biological target: interaction between HER3 and HER2 (Homo sapiens, UniProt P21860); details: dose-dependent
[8] = Differential Scanning Fluorimetry
[9] = system: HER3 overexpressing cells
[10] = system: thyroid cancer cell lines harbouring the V600E BRAF mutation
[11] = system: HER3-mediated signalling in cells of HER3-expressing cancer cell lines; details: in vitro
[12] = system: cancer cells; details: in vitro

B1: 10D1F hIgG1: HER3-binding antibody clone 10D1F (VH SEQ ID NO:33, VL SEQ ID NO:58) in human IgG1/Vκ format (antibody, V domains shown)
VH: QVQLQESGPGLVKPSQTLSLTCTVSGYSITSGYSWHWIRQHPGKGLEWIGSIRYSGGTDYNPSLKSLVTISADTSKNQFSLKLSSVTAADTAVYYCARMTTAPWYPFDYWGQGTTVTVSS
VL: DIQMTQSPSSVSASVGDRVTITCKASQIVGSNVAWYQQKPGKAPEPLIYSASYLYSGVPSRFSGSGSGTDFTLTISSLQPEDFATYYCQQYSSHPLTFGQGTKLEIK
HER3-mediated signalling [1]: inhibits HER3-mediated signalling
binding to cyno, mouse and rat HER3 [2]: high-affinity binding
growth of xenograft tumors [3]: extremely potent at inhibiting growth
growth of xenograft tumors [4]: potently inhibits growth of human cancer cell line-derived xenograft tumors in vivo
inhibition of interaction between HER3 and EGFR [5]: inhibits interaction between HER3 and EGFR in a dose-dependent fashion
binding to human HER3 [6]: high affinity and specificity
cross-reactivity with other human EGFR family members [6]: no cross-reactivity
ligand dependence of binding to HER3 [6]: ligand (NRG)-independent
affinity of binding to human HER3 ([6]; in the presence or absence of human NRG1): subpicomolar
inhibition of interaction between HER3 and HER2 [7]: highly potent
melting temperature [8]: 70.0 °C
ADCC activity [9]: induces ADCC activity against HER3 overexpressing cells in a dose-dependent manner
in vitro proliferation [10]: inhibits in vitro proliferation
HER3-mediated signalling [11]: inhibits HER3-mediated signalling
growth of cancer cells [12]: potently inhibits the growth of cancer cells in vitro
